The source of these data is PMC10470007 (The Journal of Biological Chemistry, 2023).

For this assay, the target named is T1, 1N3R Tau protein isoform with a V5 insertion between E73 and A74 (V5 epitope tag (simian virus 5 P/V …, strain, labeled with Alexa Fluor 488 NHS (succinimidyl) ester, 2:1 NHS Alexa:Tau-V5)).
T1 construct: also called Tau-V5; labeled Tau-V5
The experiment in a line: flow cytometry on cells. The following applies: one partner purified. (In flow cytometry, cells or beads pass a laser one at a time.)

B1: NbV5-AGAP2-Halo-myc (VHH)
VHH: EVQLQASGGGFVQPGGSLRLSCAASGTTSFGDTMGWFRQAPGKEREFVSAISRQGDKHYYADSVKGRFTISRDNSKNTVYLQMNSLRAEDTATYYCAEWMNTRREFITPYWGQGTQVTVSS
notes: also called NbV5 (yeast surface display)
As usually defined, the Kd is a measure of binding affinity in units of concentration. B1 yielded a Kd of 29 nM.
